B1: wild type (WT) αB-crystallin (natural protein, human, UniProt P02511 1-175, looked up)
chain: MDIAIHHPWIRRPFFPFHSPSRLFDQFFGEHLLESDLFPTSTSLSPFYLRPPSFLRAPSWFDTGLSEMRLEKDRFSVNLDVKHFSPEELKVKVLGDVIEVHGKHEERQDEHGFISREFHRKYRIPADVDPLTITSSLSSDGVLTVNGPRKQVSGPERTIPITREEKPAVTAAPKK
notes: αB-crystallin, human, 175 amino acid residues; cDNA cloned in plasmid pDIRECT; Oligomer; Also used after UV-A exposure (320-400 nm; 20 or 50 J/cm^2), which oxidises Met and/or Trp residues and partly degrades the protein; source: E. coli BL21 (DE3) pLysS, purified (DEAE-Sephacel, Butyl-Sepharose, size-exclusion HPLC)
B2: αB-Asn78/146Asp deamidated double mutant protein (natural protein, human, UniProt P02511 1-175, looked up)
chain: MDIAIHHPWIRRPFFPFHSPSRLFDQFFGEHLLESDLFPTSTSLSPFYLRPPSFLRAPSWFDTGLSEMRLEKDRFSVDLDVKHFSPEELKVKVLGDVIEVHGKHEERQDEHGFISREFHRKYRIPADVDPLTITSSLSSDGVLTVDGPRKQVSGPERTIPITREEKPAVTAAPKK
notes: αB-crystallin, human, 175 amino acid residues; cDNA cloned in plasmid pDIRECT; both Asn78 and Asn146 changed to Asp by site-directed mutagenesis; Mimics deamidation of Asn78 and Asn146; Also used after UV-A exposure; source: E. coli BL21 (DE3) pLysS, purified (DEAE-Sephacel, Butyl-Sepharose, size-exclusion HPLC)
B3: αB-Asn78Asp deamidated mutant protein (natural protein, human, UniProt P02511 1-175, looked up)
chain: MDIAIHHPWIRRPFFPFHSPSRLFDQFFGEHLLESDLFPTSTSLSPFYLRPPSFLRAPSWFDTGLSEMRLEKDRFSVDLDVKHFSPEELKVKVLGDVIEVHGKHEERQDEHGFISREFHRKYRIPADVDPLTITSSLSSDGVLTVNGPRKQVSGPERTIPITREEKPAVTAAPKK
notes: αB-crystallin, human, 175 amino acid residues; cDNA cloned in plasmid pDIRECT; Asn78 changed to Asp by site-directed mutagenesis; Mimics deamidation of Asn78; Also used after UV-A exposure; source: E. coli BL21 (DE3) pLysS, purified (DEAE-Sephacel, Butyl-Sepharose, size-exclusion HPLC)
B4: αB-Asn146Asp deamidated mutant protein (natural protein, human, UniProt P02511 1-175, looked up)
chain: MDIAIHHPWIRRPFFPFHSPSRLFDQFFGEHLLESDLFPTSTSLSPFYLRPPSFLRAPSWFDTGLSEMRLEKDRFSVNLDVKHFSPEELKVKVLGDVIEVHGKHEERQDEHGFISREFHRKYRIPADVDPLTITSSLSSDGVLTVDGPRKQVSGPERTIPITREEKPAVTAAPKK
notes: αB-crystallin, human, 175 amino acid residues; cDNA cloned in plasmid pDIRECT; Asn146 changed to Asp by site-directed mutagenesis; Mimics deamidation of Asn146; Also used after UV-A exposure; source: E. coli BL21 (DE3) pLysS, purified (DEAE-Sephacel, Butyl-Sepharose, size-exclusion HPLC)

Target: the molecule itself
Assay: cross-linking; UV-A irradiation (320-400 nm; 20 and 50 J/cm^2, about 5 °C, 50 mM phosphate buffer, pH 7.5) of the purified protein, then SDS-PAGE after treatment with 150 mM β-mercaptoethanol; 40 kDa species

Q: How did the “stoichiometry N” value turn out when B1 was run?
A: 2

Q: How did the “stoichiometry N” value turn out when B2 was run?
A: 2

Q: How did the “stoichiometry N” value turn out when B3 was run?
A: 2

Q: With B4 as the protein, how does the “stoichiometry N” value read?
A: 2
